Source: article PMC3988186
pKd: −log10 of the molar value.

Tests used:
beta-arrestin 2 = beta-arrestin 2 (UniProt P32121); conditions: 2'-F pyrimidines (2'F-C, 2'F-U); Kd assay buffer not stated separately; selection buffer F: 20 mM HEPES pH 7.4, 150 mM NaCl, 1 mM CaCl2, 1 mM MgCl2, 0.01% BSA, 37 C
beta-arrestin 1 = beta-arrestin 1 (UniProt P49407); conditions: 2'-F pyrimidines (2'F-C, 2'F-U); Kd assay buffer not stated separately; selection buffer F: 20 mM HEPES pH 7.4, 150 mM NaCl, 1 mM CaCl2, 1 mM MgCl2, 0.01% BSA, 37 C
beta-arrestin 1, sequence (P49407 whole entry): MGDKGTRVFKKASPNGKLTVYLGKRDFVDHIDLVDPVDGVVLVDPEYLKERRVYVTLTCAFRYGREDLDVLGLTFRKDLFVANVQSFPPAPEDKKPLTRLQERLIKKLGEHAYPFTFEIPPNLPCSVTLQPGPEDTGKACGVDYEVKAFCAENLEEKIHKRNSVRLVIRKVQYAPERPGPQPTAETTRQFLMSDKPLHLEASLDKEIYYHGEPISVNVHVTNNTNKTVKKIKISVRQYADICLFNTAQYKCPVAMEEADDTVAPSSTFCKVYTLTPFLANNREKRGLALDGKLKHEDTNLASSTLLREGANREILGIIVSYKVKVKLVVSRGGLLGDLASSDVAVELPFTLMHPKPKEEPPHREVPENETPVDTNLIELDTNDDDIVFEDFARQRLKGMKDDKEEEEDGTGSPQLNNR

beta-arrestin 2, sequence (P32121 whole entry): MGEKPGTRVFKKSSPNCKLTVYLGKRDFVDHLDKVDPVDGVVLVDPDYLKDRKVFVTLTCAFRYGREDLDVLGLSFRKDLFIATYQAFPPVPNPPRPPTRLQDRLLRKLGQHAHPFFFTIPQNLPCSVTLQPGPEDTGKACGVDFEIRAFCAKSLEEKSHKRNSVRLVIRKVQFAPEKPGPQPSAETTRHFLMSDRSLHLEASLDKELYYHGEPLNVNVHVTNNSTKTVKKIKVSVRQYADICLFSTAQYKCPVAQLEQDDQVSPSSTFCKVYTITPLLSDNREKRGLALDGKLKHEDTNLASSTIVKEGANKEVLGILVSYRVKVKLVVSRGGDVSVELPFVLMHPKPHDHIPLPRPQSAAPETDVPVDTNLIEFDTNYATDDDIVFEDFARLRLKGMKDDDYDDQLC

Sequence | pKd (beta-arrestin 2) | pKd (beta-arrestin 1)
GGGAGGACGAUGCGGAUUCCGUUAAGUAUCGCGUUAAACGCUAUGCGGACGCGUCAGACGACUCGCUGAGGAUCCGAGA [beta-arr2A1] | 7.70 | 6.02
GGGAGGACGAUGCGGCCAGGUGUAGACAGACGUGAGAGAUUGACCUGGCAGCAGCCAGACGACUCGCUGAGGAUCCGAGA [beta-arr2A2] | 8.38 | 5.67
GGGAGGACGAUGCGGAUCCUCGUCCCGUCACGGCAGAACCACGUCAGGCCUUCAACAGACGACUCGCUGAGGAUCCGAGA [beta-arr2A3] | 7.66 | 6.13
